Assay results: patent publication US20180362629A1 (ZOETIS BELGIUM S A, published 2018)

Columns and labels:
biotinylated human β NGF [1] = target: T1, biotinylated human β NGF (human, UniProt P01138 122-241, biotinylated); experiment: capture ELISA; supernatant 5-fold
T1 construct: also called Biotinylated Human NGF; human NGF
Description: (§1) The plates were washed three times with wash buffer. The plates were blocked with 200 μl of 2% milk and incubated for 1 hour at room temperature. The plates were washed as above. […] The positive control was crude sera (diluted 1:500 with PBS) isolated from a β NGF immunized mouse and the negative control was hybridoma supernatant derived from a mouse immunized with an antigen other than NGF. The plates were washed and then 50 μl of biotinylated human or rat β NGF at 50 ng/ml was added and incubated for 1 hour at room temperature. The plates were washed. […] The plates were incubated for 30 minutes at room temperature. The plates were washed and then TMB substrate (Invitrogen, catalog #00-2023) was added. The reaction was stopped using 2N H₂SO₄ (VWR, catalog # BDH3500-1). The absorbance at 450 nm was read on a Spectromax 2E plate reader (Molecular Devices); these absorbance readings are shown in Tables 1 and 2. The numerical value indicates binding of mouse anti-NGF antibodies to biotinylated human or rat β NGF.

biotinylated rat β NGF [2] = target: T2, biotinylated rat β NGF (rat, UniProt P25427 122-241, limits assumed, biotinylated); experiment: capture ELISA; supernatant 5-fold
T2 construct: also called Biotinylated Rat NGF; rat NGF
T2 sequence (P25427 122-241 limits assumed): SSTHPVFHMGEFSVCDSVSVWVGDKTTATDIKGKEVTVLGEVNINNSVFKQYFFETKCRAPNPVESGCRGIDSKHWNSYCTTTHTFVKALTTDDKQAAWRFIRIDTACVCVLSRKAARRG
Description: as §1

recombinant canine β NGF [3] = target: T3, recombinant canine β NGF (canine, UniProt Q29074 110-229 (pig entry)); experiment: cell-based or functional assay
T3 chain: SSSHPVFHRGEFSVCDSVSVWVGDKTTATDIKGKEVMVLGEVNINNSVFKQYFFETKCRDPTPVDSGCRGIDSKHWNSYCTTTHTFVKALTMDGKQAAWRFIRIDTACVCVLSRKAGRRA

biotinylated human β NGF [4] = target: T1, biotinylated human β NGF; experiment: capture ELISA; supernatant 125-fold
Description: as §1

biotinylated rat β NGF [5] = target: T2, biotinylated rat β NGF; experiment: capture ELISA; supernatant 125-fold
Description: as §1

biotinylated human β NGF [6] = target: T1, biotinylated human β NGF; experiment: capture ELISA; supernatant 25-fold
Description: as §1

biotinylated rat β NGF [7] = target: T2, biotinylated rat β NGF; experiment: capture ELISA; supernatant 25-fold
Description: as §1

biotinylated human β NGF [8] = target: T1, biotinylated human β NGF; experiment: capture ELISA; supernatant 625-fold
Description: as §1

biotinylated rat β NGF [9] = target: T2, biotinylated rat β NGF; experiment: capture ELISA; supernatant 625-fold
Description: as §1

recombinant canine β NGF [10] = target: T4, recombinant canine β NGF (canine, UniProt Q29074 110-229 (pig entry)); experiment: SPR (Biacore T100), antibody captured on goat anti-canine IgG, canine NGF injected
T4 construct: also called canine NGF
T4 chain: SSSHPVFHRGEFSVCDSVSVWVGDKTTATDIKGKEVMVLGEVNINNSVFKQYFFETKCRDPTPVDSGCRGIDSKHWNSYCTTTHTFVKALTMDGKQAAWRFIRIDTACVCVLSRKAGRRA
Description: Purified mouse/canine chimeric antibodies and caninized antibodies were analyzed for affinity to canine NGF using a Biacore T100 instrument. Goat anti Canine IgG (Southern Biotech) was immobilized at 5000-10000 RU on a CM5 chip using an amine coupling procedure according to the manufacturer's instructions (Biacore). […] The association rate was monitored for 5 min and the dissociation rate was monitored for 10-20 min. The chip surface was regenerated using 50-75 ul 10 mM glycine pH 1.5 at a flow rate of 50-100 ul/min. Data was analyzed using Biaevaluation T100 software version 2.0.2, software, GE Healthcare Life Sciences (Piscataway, N.J.). Overall affinity parameters established for mouse/canine chimeric antibodies is summarized in Table 22 and for caninized antibodies in Table 23. […] The overall KDs of the mouse/canine anti-NGF mAbs range from about 1300 pM to 1.6 pM. […] The overall KDs of the caninized anti-NGF mAbs range from about 42 pM to 1.2 pM.

recombinant canine β NGF [11] = target: T4, recombinant canine β NGF; experiment: cell-based or functional assay

T1 sequence (P01138 122-241 limits assumed): as the sequence (P25427 122-241 limits assumed) above, with T3S, V6I, M9R, T37M, A60D, E65D, T92M, D94G, A117V, G120A counted along it

Row | Binder | absorbance at 450 nm (biotinylated human β NGF [1]) | absorbance at 450 nm (biotinylated rat β NGF [2]) | PathHunter IC50 (441 pM canine NGF) (recombinant canine β NGF [3]) | SureFire cellular pERK IC50 (128 pM canine NGF) (recombinant canine β NGF [3]) | absorbance at 450 nm (biotinylated human β NGF [4]) | absorbance at 450 nm (biotinylated rat β NGF [5]) | absorbance at 450 nm (biotinylated human β NGF [6]) | absorbance at 450 nm (biotinylated rat β NGF [7]) | absorbance at 450 nm (biotinylated human β NGF [8]) | absorbance at 450 nm (biotinylated rat β NGF [9]) | Kd (recombinant canine β NGF [10]) | koff (recombinant canine β NGF [10]) | IC50, canine NGF-induced TF-1 cell proliferation (70 pM canine NGF) (recombinant canine β NGF [11])
1 | PR-1254980 (antibody, mouse IgG1, V domains shown, also called 23F1; ML129-23F1.4G3) VH: EVQLQQSGAELVKPGASVKLSCTASGFNIKDTYIYWVKQRPEQGLEWIGRIDPANGNTIYASKFQGKATITADTSSNTAYMQLSSLTSGDTAVYYCAGYGYYAYWGQGTTLTVSS VL: DVVLTQTPLSLPVNIGDQASISCKSTKSLLNGDGFTYLDWYLQKPGQSPQLLIYLVSNRFSGVPDRFSGSGSGTDFTLKISRVEAEDLGVYYCFESNYLFTFGSGTKLEMKR | 1.14 | 0.764 | < 1 nM | < 1 nM | 0.979 | 0.737 | 1.17 | 0.767 | 0.696 | 0.528 | – | – | –
2 | Mu77 Canine IgG1/k Chimera (antibody, V domains shown, also called PR-1290656; lot 1785699) VH: EVQLQQSGAELVKPGASVKLSCTASGFNIKDTYIYWVKQRPEQGLEWIGRIDPANGNTIYASKFQGKASITADTSSNTAYMQLSSLTSGDTAVYYCAGYGYYAYWGQGTTLTVSS VL: DVVLTQTPLSLPVNIGDQASISCKSTKSLLNGDGFTYLDWYLQKPGQSPQLLIYLVSNRFSGVPDRFSGSGSGTDFTLKISRVEAEDLGVYYCFESNYLFTFGSGTKLEMKR | – | – | – | – | – | – | – | – | – | – | 0.021 nM | 0.00019 s⁻¹ | 28 pM
3 | PR-1254977 (antibody, mouse IgG1, V domains shown, also called 21D4; ML129-21D4.4A11) VH: EVQLQQSGAELVKPGASVKLSCTASGFNIKDTYIYWVKQRPEQGLEWIGRIDPANGNTIYASKFQGKASITADTSSNTAYMQLSSLTSGDTAVYYCAGYGYYAYWGQGTTLTVSS VL: DVVLTQTPLSLPVNIGDQASISCKSTKSLLNGDGFTYLDWYLQKPGQSPQLLIYLVSNRFSGVPDRFSGSGSGTDFTLKISRVEAEDLGVYYCFESNYLFTFGSGTKLEMKR | 1.15 | 0.787 | < 1 nM | < 1 nM | 0.899 | 0.671 | 1.04 | 0.76 | 0.543 | 0.453 | – | – | –
4 | Mu82 Canine IgG1/k Chimera (antibody, V domains shown, The exact junction was not checked; also called PR-1290658; lot 1785732) VH: QVQLKESGPGLVAPSQSLSITCTVSGFSLTGYNINWVRQPPGKGLEWLGMIWGYGDTDYNSALKSRLSISKDNSKSQVFLKMNSLQTDDTARYYCARDHYGGNDWYFDVWGTGTTVTVSS VL: DIQMTQTTSSLSASLGDRVTITCRASQDITNYLNWYQQKPDGTVKLLIYYTSRLHSGVPSRFSGSGSGTDYSLTISNLDQEDIATYFCQQGKTLPRTFGGGTKLEIKR | – | – | – | – | – | – | – | – | – | – | 0.0016 nM | 1.4e-05 s⁻¹ | 7 pM
